Reference: patent US20180142261A1

Molecular target: mouse CD4 (mouse) (UniProt P06332)
Test: flow cytometry, primary C57BL/6 splenocytes ex vivo, siCy5 signal (FIG. 4B)

Chain of UniProt P06332 (P06332 27-457): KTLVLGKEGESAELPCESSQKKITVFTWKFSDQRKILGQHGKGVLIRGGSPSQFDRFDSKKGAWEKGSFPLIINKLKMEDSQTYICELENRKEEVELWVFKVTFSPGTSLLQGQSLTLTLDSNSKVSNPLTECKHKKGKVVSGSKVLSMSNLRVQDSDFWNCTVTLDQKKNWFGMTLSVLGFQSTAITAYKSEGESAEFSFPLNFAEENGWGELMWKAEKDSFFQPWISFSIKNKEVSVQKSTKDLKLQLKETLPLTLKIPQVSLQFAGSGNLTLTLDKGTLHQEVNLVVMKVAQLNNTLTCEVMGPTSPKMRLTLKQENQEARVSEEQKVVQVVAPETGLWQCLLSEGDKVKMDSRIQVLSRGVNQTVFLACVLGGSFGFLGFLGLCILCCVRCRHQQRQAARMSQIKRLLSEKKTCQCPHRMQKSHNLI

Substance	percent of CD4+ cells that bind
isoLNPs: lipid nanoparticles coated with an isotype control mAb (antibody)	1%
tLNPs: lipid nanoparticles (siRNA-encapsulating) conjugated to DTT-reduced anti-mouse CD4 monoclonal antibody (clone YTS.177)	100%
